Test results reported in patent US20220073599A1 (Hoffmann-La Roche, published 2022).
Positions count from the first letter of the chain named.

Tests used:
[1] = target: T1, human VEGFA-165 (human, UniProt P15692-4 27-191); assay: KinExA, VEGFA-165; set-up for VEGFA-165 not described
T1 construct: also called hVEGF-A165

[2] = target: T2, human Ang2-RBD-muFc (human, UniProt O15123 275-496, limits assumed); assay: KinExA, human ANG2 (Ang2-RBD-muFc) by the table's title; the column's head prints VEGFA-121
T2 construct: also called Human ANG2 (KinExA); not shown: murine Fc (muFc)
T2 sequence: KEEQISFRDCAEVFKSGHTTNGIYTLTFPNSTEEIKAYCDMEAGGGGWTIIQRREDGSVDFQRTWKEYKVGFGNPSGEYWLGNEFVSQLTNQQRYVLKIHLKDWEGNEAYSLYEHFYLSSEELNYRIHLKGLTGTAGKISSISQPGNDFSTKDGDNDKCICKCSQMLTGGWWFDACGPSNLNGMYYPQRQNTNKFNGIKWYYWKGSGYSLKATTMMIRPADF
Procedure: (§1) All KinExA® experiments were performed at room temperature (RT) using PBS pH 7.4 with 0.01% BSA and 0.01% Tween® 20 (BioRad, #161-0781) as running buffer. […] A flow rate of 0.25 ml/min was used. A constant amount of Ang2-RBD-muFc (50 pM and in a second experiment 500 pM) was titrated with tested antibody by twofold serial dilution starting at 4 nM (concentration range 1.95 pM-4000 pM). Antigen-antibody complexes were incubated at RT for at least 8 h to allow equilibrium to be reached. Equilibrated mixtures were then drawn through a column of Anti-Ang2 antibody (MAB098) coupled beads in the KinExA® system at a volume of 750 μl for 50 pM constant Ang2 and at a volume of 188 μl for 500 pM constant Ang2 permitting unbound Ang2 to be captured by the beads without perturbing the equilibrium state of the solution. Bound Ang2 was detected using a second biotinylated anti-Ang2 antibody (BAM0981) with a concentration of 250 ng/ml and following by an injection of 250 ng/ml Streptavidin Alexa Fluor™ 647 conjugate in sample buffer. Each sample was measured in duplicates for all equilibrium experiments. The KD was obtained from non-linear regression analysis of the data using a one-site homogeneous binding model contained within the KinExA® software (Version 4.0.11) using the “standard analysis” method. […]

[3] = target: T3, human VEGFA-121-His (human, UniProt P15692 181-395); assay: KinExA equilibrium titration in solution, constant VEGFA-121-His
T3 construct: Prepared in-house; not shown: His tag
T3 sequence: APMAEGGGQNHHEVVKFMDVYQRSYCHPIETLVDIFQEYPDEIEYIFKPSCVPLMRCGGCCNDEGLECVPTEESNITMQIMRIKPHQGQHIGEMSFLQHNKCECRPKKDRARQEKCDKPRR
Procedure: All KinExA® experiments were performed at room temperature (RT) using PBS pH 7.4 with 0.01% BSA and 0.01% Tween® 20 (BioRad, #161-0781) as running buffer. […] A flow rate of 0.25 ml/min was used. […] Antigen-antibody complexes were incubated at RT for at least 8 h to allow equilibrium to be reached. […] Each sample was measured in duplicates for all equilibrium experiments. The KD was obtained from non-linear regression analysis of the data using a one-site homogeneous binding model contained within the KinExA® software (Version 4.0.11) using the “standard analysis” method. The software calculates the KD and determines the 95% confidence interval by fitting the data points to a theoretical KD curve. The 95% confidence interval is given as KD low and KD high.

[4] = target: T2, human Ang2-RBD-muFc; assay: KinExA equilibrium titration in solution, constant Ang2-RBD-muFc
Procedure: as §1

[5] = target: T4, human Ang2-RBD (human, UniProt O15123 275-496, limits assumed); assay: SPR, Fab captured by anti-Fab antibody, Ang2-RBD injected, 25 C, 1:1 fit
T4 construct: also called Human ANG2 (SPR); Angiopoietin 2-RBD
T4 sequence: T2 sequence
Procedure: An anti-Fab capturing antibody (GE Healthcare 28958325) was immobilized to a Series S Sensor Chip C1 (GE Healthcare BR100535) using standard amine coupling chemistry resulting in a surface density of approximately 800 resonance units (RU). As running and dilution buffer, HBS-P+ (10 mM HEPES, 150 mM NaCl pH 7.4, 0.05% Surfactant P20) was used, the temperature of measurement was 25° C. The tested antibody was captured by injecting a 50 nM solution for 60 sec at a flow of 5 μl/min. Association was measured by injection of human Ang2-RBD in various concentrations in solution for 180 sec at a flow of 30 μl/min (0.07 nM-50 nM, 1:3 dilution). The dissociation phase was monitored for up to 900 sec and triggered by switching from the sample solution to running buffer at a flow rate of 30 μl/min. The surface was regenerated by injection of 10 mM Glycine pH 2.1 for 60 s at a flow rate of 30 μl/min. Bulk refractive index differences were corrected by subtracting blank injections and by subtracting the response obtained from the reference flow cell without captured tested antibody. Curve fitting was performed using the 1:1 Langmuir binding model within the Biacore® evaluation software.

[6] = target: T3, human VEGFA-121-His; assay: SPR, VEGF-A121-His captured by anti-His antibody, Fab injected, single cycle kinetics, 1:1 fit
Procedure: (§2) An anti-His capturing antibody (GE Healthcare 28995056) was immobilized to a Series S Sensor Chip C1 (GE Healthcare BR100535) using standard amine coupling chemistry resulting in a surface density of approximately 600 resonance units (RU). As running and dilution buffer, HBS-P+ (10 mM HEPES, 150 mM NaCl pH 7.4, 0.05% Surfactant P20) was used. […] A dilution series of the tested antibody (3.7-300 nM, 1:3 dilution) was successively injected for 60 s each, dissociation was monitored for 3600 s at a flow rate of 30 μl/min (single cycle kinetics). The surface was regenerated by injecting 10 mM Glycine pH 1.5 for 60 s at a flow of 5 μl/min. […] Curve fitting was performed using the 1:1 Langmuir binding model within the Biacore® evaluation software.

[7] = target: T3, human VEGFA-121-His; assay: SPR, VEGF-A121-His captured by anti-His antibody, Fab injected, single cycle kinetics; marked outside of Biacore specification
Procedure: as §2

B1: bispecific anti-VEGF-A/anti-ANG2 Fab fragment P1AD9820 (Fab, V domains shown)
VH: SEHLVESGGGLVKPGGSLRLSCATADFFEYDDMSWVRQAPGKGLEWVGSISPKGDHKYLNTKFIGRFTISRDDSKNTLYLQMNSLRAEDTAVYYCARDVGFFDWWGQGTLVTVSS
VL: AIYMHQEPSSLSASVGDRVTITCHGSYWLNSEVAWYQQKPGKAPKLLIFDGDFKVYEVPSRFSGSGSHEDYTLTISSLQPEDFATYYCQQYRYHPYTFGHGTKVEIKR
notes: Bispecific Fab with two paratopes in one VH/VL pair; also called P1AD9820 Fab
- Kd [1]: ~2 pM
- Kd [2]: ~2 pM

B2: bispecific anti-VEGF-A/anti-ANG2 Fab fragment P1AA8906 (Fab, V domains shown)
VH: DFQLVESGGGLVKPGGSLRLSCAASYEFEYDDMSWVRQAPGKGLEWVGSISPKGGSTYYNTKFIGRFTISRDNSKNTLYLQMNSLRAEDTAVYYCARDVGFFDMWGQGTLVTVSS
VL: B1 VL with N30S, S31N, E32Y, V33L, G51A, D52R, F53W, K54L, Y56H, E57G
notes: Bispecific Fab with two paratopes in one VH/VL pair (DutaFab); CH1 and Ckappa
- Kd [3]: 10.9 pM
- Kd [4]: 7180 pM
- Kd [5]: 4550 pM
- koff [5]: 0.032 s⁻¹
- kon [5]: 7.03e+06 M⁻¹ s⁻¹
- kon [6]: 1.66e+06 M⁻¹ s⁻¹
- Kd [7]: 3 pM
- koff [7]: 4.53e-06 s⁻¹
